Test results reported in publication PMC6874530 (2019).

Biological target: NCOR1 peptide (Homo sapiens, UniProt O75376)
Assay: SPR

Sequence of NCOR1 peptide (O75376 whole entry): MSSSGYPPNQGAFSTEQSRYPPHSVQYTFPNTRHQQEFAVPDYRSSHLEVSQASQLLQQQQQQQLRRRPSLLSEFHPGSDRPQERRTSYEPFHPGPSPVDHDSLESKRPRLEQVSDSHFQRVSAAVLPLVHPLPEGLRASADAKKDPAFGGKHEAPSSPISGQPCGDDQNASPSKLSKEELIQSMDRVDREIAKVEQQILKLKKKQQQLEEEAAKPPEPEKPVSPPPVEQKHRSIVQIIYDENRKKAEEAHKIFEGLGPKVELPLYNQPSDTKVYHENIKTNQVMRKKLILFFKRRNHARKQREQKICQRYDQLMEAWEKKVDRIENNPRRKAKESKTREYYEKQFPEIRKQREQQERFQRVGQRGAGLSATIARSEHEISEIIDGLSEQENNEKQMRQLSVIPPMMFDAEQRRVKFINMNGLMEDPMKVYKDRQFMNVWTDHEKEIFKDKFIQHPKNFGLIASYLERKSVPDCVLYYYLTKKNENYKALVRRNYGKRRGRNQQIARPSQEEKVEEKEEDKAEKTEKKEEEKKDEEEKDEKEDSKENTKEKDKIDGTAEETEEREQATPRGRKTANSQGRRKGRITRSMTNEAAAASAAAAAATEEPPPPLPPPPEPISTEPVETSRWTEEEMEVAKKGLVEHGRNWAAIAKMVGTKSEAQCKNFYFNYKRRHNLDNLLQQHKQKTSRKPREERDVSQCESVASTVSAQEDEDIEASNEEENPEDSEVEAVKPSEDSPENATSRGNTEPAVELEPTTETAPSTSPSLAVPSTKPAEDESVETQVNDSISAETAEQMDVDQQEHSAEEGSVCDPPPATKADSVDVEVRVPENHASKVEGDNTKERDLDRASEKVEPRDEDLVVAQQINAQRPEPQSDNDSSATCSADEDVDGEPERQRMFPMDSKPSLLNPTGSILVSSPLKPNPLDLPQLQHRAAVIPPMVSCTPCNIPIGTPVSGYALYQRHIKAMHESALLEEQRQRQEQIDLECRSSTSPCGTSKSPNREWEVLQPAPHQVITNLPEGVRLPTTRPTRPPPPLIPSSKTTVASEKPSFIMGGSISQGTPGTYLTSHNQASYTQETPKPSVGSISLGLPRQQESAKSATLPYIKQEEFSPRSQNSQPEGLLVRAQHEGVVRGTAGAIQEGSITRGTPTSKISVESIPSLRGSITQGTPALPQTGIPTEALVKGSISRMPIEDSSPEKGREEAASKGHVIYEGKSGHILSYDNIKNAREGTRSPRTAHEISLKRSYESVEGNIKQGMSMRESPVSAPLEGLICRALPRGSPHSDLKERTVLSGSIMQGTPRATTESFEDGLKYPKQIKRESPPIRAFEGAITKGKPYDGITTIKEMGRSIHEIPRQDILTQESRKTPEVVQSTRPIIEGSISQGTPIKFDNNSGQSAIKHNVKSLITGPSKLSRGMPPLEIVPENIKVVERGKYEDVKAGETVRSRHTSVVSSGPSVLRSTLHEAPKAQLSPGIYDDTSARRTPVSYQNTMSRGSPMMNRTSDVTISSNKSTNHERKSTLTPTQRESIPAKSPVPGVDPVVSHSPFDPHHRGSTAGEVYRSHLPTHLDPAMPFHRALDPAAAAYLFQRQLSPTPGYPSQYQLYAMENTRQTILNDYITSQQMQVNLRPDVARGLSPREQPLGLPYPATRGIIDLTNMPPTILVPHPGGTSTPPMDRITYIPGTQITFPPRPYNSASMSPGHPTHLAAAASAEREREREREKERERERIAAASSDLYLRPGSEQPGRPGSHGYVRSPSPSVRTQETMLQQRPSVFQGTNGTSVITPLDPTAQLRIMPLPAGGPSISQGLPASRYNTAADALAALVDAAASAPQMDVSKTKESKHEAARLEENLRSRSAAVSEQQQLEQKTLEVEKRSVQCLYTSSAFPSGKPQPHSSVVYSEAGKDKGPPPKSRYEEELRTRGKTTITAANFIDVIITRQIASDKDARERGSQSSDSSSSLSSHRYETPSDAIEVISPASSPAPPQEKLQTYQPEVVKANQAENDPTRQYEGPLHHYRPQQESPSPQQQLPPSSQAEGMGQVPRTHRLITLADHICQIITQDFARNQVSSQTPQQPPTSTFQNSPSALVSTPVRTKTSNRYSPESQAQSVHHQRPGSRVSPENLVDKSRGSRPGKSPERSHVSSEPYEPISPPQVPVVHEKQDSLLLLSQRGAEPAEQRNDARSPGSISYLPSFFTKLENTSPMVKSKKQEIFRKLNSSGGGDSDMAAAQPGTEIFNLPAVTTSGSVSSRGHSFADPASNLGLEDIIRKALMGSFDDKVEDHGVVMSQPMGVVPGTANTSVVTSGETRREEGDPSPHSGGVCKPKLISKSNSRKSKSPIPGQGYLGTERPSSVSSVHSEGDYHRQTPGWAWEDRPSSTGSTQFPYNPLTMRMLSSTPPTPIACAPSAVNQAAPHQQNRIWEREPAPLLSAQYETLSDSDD

| Binder | Kd |
| --- | --- |
| LXRα LBD (protein) EQLGMIEKLVAAQQQCNRRSFSDRLRVTPWPMAPDPHSREARQQRFAHFTELAIVSVQEIVDFAKQLPGFLQLSREDQIALLKTSAIEVMLLETSRRYNPGSESITFLKDFSYNREDFAKAGLQVEFINPIFEFSRAMNELQLNDAEFALLIAISIFSADRPNVQDQLQVERLQHTYVEALHAYVSIHHPHDRLMFPRMLMKLVSLRTLSSVHSEQVFALRLQDKKLPPLLSEIWDVHE | 0.8 µM |
| LXRβ LBD (protein) AQELMIQQLVAAQLQCNKRSFSDQPKVTPWPLGADPQSRDARQQRFAHFTELAIISVQEIVDFAKQVPGFLQLGREDQIALLKASTIEIMLLETARRYNHETECITFLKDFTYSKDDFHRAGLQVEFINPIFEFSRAMRRLGLDDAEYALLIAINIFSADRPNVQEPGRVEALQQPYVEALLSYTRIKRPQDQLRFPRMLMKLVSLRTLSSVHSEQVFALRLQDKKLPPLLSEIWDVHE | 0.5 µM |

Biological target: SRC1 peptide (Homo sapiens, UniProt Q15788)
Assay: SPR

Sequence of SRC1 peptide (Q15788 2-1441): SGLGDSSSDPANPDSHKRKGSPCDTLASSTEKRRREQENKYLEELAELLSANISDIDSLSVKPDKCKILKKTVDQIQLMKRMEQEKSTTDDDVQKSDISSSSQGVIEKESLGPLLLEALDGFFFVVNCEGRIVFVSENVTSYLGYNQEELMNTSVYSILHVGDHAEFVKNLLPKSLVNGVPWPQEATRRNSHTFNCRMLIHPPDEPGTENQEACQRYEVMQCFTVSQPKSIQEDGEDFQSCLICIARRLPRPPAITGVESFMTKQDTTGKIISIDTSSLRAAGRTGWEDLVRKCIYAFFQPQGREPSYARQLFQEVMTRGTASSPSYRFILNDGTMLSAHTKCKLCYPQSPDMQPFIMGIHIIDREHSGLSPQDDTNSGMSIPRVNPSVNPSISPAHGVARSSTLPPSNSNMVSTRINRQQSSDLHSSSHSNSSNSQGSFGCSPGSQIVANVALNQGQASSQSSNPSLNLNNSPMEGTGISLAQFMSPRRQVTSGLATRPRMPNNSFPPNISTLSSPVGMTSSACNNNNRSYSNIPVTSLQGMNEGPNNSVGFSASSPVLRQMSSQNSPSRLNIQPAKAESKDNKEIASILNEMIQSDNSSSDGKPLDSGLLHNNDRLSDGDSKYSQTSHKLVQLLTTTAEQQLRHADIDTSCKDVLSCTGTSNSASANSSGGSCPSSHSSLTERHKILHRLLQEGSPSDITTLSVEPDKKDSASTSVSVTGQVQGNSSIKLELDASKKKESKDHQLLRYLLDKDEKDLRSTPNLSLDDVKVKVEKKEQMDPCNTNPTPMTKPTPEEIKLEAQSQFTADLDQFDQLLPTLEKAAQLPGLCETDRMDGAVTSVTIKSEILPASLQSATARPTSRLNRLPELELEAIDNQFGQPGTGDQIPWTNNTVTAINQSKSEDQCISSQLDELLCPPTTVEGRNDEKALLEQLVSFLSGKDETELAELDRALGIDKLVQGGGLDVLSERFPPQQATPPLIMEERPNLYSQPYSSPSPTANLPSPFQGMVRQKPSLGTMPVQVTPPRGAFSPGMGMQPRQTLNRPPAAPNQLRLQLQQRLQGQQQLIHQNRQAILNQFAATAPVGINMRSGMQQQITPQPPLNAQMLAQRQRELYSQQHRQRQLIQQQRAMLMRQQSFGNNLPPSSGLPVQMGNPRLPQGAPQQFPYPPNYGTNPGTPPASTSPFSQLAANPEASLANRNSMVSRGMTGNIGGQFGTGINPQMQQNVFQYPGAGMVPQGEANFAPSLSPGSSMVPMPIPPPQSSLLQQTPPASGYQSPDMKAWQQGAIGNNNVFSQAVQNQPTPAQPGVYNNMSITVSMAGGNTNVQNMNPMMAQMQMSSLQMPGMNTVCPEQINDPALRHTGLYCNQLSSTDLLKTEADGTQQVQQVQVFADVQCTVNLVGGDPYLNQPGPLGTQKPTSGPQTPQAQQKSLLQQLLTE

| Binder | Kd |
| --- | --- |
| LXRα LBD (protein, lipogenic agonists (average)) EQLGMIEKLVAAQQQCNRRSFSDRLRVTPWPMAPDPHSREARQQRFAHFTELAIVSVQEIVDFAKQLPGFLQLSREDQIALLKTSAIEVMLLETSRRYNPGSESITFLKDFSYNREDFAKAGLQVEFINPIFEFSRAMNELQLNDAEFALLIAISIFSADRPNVQDQLQVERLQHTYVEALHAYVSIHHPHDRLMFPRMLMKLVSLRTLSSVHSEQVFALRLQDKKLPPLLSEIWDVHE | 1.2 µM |
| LXRβ LBD (protein, BMS-852927) AQELMIQQLVAAQLQCNKRSFSDQPKVTPWPLGADPQSRDARQQRFAHFTELAIISVQEIVDFAKQVPGFLQLGREDQIALLKASTIEIMLLETARRYNHETECITFLKDFTYSKDDFHRAGLQVEFINPIFEFSRAMRRLGLDDAEYALLIAINIFSADRPNVQEPGRVEALQQPYVEALLSYTRIKRPQDQLRFPRMLMKLVSLRTLSSVHSEQVFALRLQDKKLPPLLSEIWDVHE | 19.8 µM |
| LXRβ LBD (protein, 24,25EC) AQELMIQQLVAAQLQCNKRSFSDQPKVTPWPLGADPQSRDARQQRFAHFTELAIISVQEIVDFAKQVPGFLQLGREDQIALLKASTIEIMLLETARRYNHETECITFLKDFTYSKDDFHRAGLQVEFINPIFEFSRAMRRLGLDDAEYALLIAINIFSADRPNVQEPGRVEALQQPYVEALLSYTRIKRPQDQLRFPRMLMKLVSLRTLSSVHSEQVFALRLQDKKLPPLLSEIWDVHE | 2.5 µM |
| LXRα LBD (protein, AZ6) EQLGMIEKLVAAQQQCNRRSFSDRLRVTPWPMAPDPHSREARQQRFAHFTELAIVSVQEIVDFAKQLPGFLQLSREDQIALLKTSAIEVMLLETSRRYNPGSESITFLKDFSYNREDFAKAGLQVEFINPIFEFSRAMNELQLNDAEFALLIAISIFSADRPNVQDQLQVERLQHTYVEALHAYVSIHHPHDRLMFPRMLMKLVSLRTLSSVHSEQVFALRLQDKKLPPLLSEIWDVHE | 1.5 µM |
